Measurements as given in patent US20040248184A1 (published 2004).

B1: rat Reg-binding protein comprising 364 amino acids (cDNA isolated in Example 5, expression vector pCI-167.1) (receptor)
chain: MTGYTMLRNGGVGNGGQTCMLRWSNRIRLTWLSFTLFIILVFFPLIAHYYLTTLDEADEAGKRIFGPRAGNELCEVKHVLDLCRIRESVSEELLQLEAKRQELNSEIAKLNLKIEACKKSIENAKQDLLQLKNVISQTEHSYKELMAQNQPKLSLPIRLLPEKDDAGLPPPKVTRGCRLHNCFDYSRCPLTSGFPVFVYDSDQFAFGSYLDPLVKQAFQATVRANVYVTENAAIACLYVVLVGEIQEPAVLQPADLEKQLHSLPHWRTDGHNHVIINLSRKSDTQNLLYNVSTGRAMVAQSTFYAAQYRAGFDLVVSPLVHAMSEPNFMEIPRVTIFSLGRGEEEQEKLGVWRGRPPPGWGAGP
notes: also called 1.6 kbp cDNA clone
B2: rat Reg protein (Reg I) (ligand, UniProt P10758 22-165, looked up)
chain: QEAEEDLPSARITCPEGSNAYSSYCYYFMEDHLSWAEADLFCQNMNSGYLVSVLSQAEGNFLASLIKESGTTAANVWIGLHDPKNNRRWHWSSGSLFLYKSWDTGYPNNSNRGYCVSVTSNSGYKKWRDNSCDAQLSFVCKFKA
modifications: as tracer labelled with 125I using Bolton-Hunter reagent; used unlabelled as competitor
notes: mature; also called rat Reg I
B3: human REG protein (REG Iα) (ligand, UniProt P05451 23-166, looked up)
chain: QEAQTELPQARISCPEGTNAYRSYCYYFNEDRETWVDADLYCQNMNSGNLVSVLTQAEGAFVASLIKESGTDDFNVWIGLHDPKKNRRWHWSSGSLVSYKSWGIGAPSSVNPGYCVSLTSSTGFQKWKDVPCEDKFSFVCKFKN
notes: mature; also called human REG Iα; REG Ia
B4: rat Reg receptor (rat Reg-binding protein, rat homologue of human EXTL3/EXTR1), 919 amino acids, with N-terminal HA tag (receptor)
chain: YPYDVPDYAMTGYTMLRNGGVGNGGQTCMLRWSNRIRLTWLSFTLFIILVFFPLIAHYYLTTLDEADEAGKRIFGPRAGNELCEVKHVLDLCRIRESVSEELLQLEAKRQELNSEIAKLNLKIEACKKSIENAKQDLLQLKNVISQTEHSYKELMAQNQPKLSLPIRLLPEKDDAGLPPPKVTRGCRLHNCFDYSRCPLTSGFPVFVYDSDQFAFGSYLDPLVKQAFQATVRANVYVTENAAIACLYVVLVGEIQEPAVLQPADLEKQLHSLPHWRTDGHNHVIINLSRKSDTQNLLYNVSTGRAMVAQSTFYAAQYRAGFDLVVSPLVHAMSEPNFMEIPPQVPVKRKYLFTFQGEKIESLRSSLQEARSFEEEMEGDPPADYDDRIIATLKAVQDSKLDQVLVEFTCKNQPKPSLPTEWALCGEREDRLELLKLSTFALIITPGDPSLLISSGCATRLFEALEVGAVPVVLGEQVQLPYHDMLQWNEAALVVPKPRVTEVHFLLRSLSDSDLLAMRRQGRFLWETYFSTADSIFNTVLAMIRTRIQIPAAPIREEVAAEIPHRSGKAAGTDPNMADNGDLDLGPVETEPPYASPKYLRNFTLTVTDCYRSWNSAPGPFHLFPHTPFDPVLPSEAKFLGSGTGFRPIGGGAGGSGKEFQAALGGNVQREQFTVVMLTYEREEVLMNSLERLNGLPYLNKVVVVWNSPKLPSEDLLWPDIGVPIMVVRTEKNSLNNRFLPWNEIETEAILSIDDDAHLRHDEIMFGFRVWREARDRIVGFPGRYHAWDIPHQSWLYNSNYSCELSMVLTGAAFFHKYYAYLYSYVMPQAIRDMVDEYINCEDIAMNFLVSHITRKPPIKVTSRWTFRCPGCPQALSHDDSHFHERHKCINFFVKVYGYMPLLYTQFRVDSVLFKTRLPHDKTKCFKFI
notes: also called rEXTL3; pCI•rEXTL3

Assays:
rat Reg protein (Reg I) [1] = target: B2; assay: binding of 10 nM [125I] rat Reg I to transiently transfected COS-7 cells on ice for 2 h, gamma counting, with (+) or without (-) 100-fold unlabelled rat Reg I
Experimental: Specifically, first, [¹²⁵I] rat Reg I stock solution (50 ng/μl=˜3.33 μM, 2.7×10⁵ cpm/μl) was diluted to 10 nM using DMEM. In addition, a diluted solution in which non-labeled Reg I stock solution (2250 ng/μl=150 μM) was added at 100-folds the concentration of [¹²⁵I] Reg I (1 μm), was prepared.
3 ml of 2.5×10⁵ cells/ml transfected COS cells were seeded onto 6 well plates and cultured at 37° C. for 2 days. After washing with ice-cold DMEM, 3 ml DMEM containing [¹²⁵I] rat Reg I was added (10 nM, final concentration). In a competitive inhibition experiment, 100-fold amount of non-labeled Reg I coexisted. After keeping on ice for 2 hours and then washing 3 times with DMEM, 1 ml/well of [100 mM Tris-HCl (pH 7.6), 1 mM EDTA, 1% Triton X-100] was added to lyze the cells, and [¹²⁵I] radioactivity was counted by using a γ-counter.

[2] = target: B4; assay: displacement of 125I rat Reg protein from CHO cells stably expressing the rat Reg receptor
Experimental: (§1) The rat Reg-binding protein (also called EXTL3/EXTR1) expression vector constructed in Example 8 or the control vector was introduced into COS-7 cells by electroporation and expressed transiently. CHO cells expressing the Reg receptor stably were isolated as described above. The cells (7.5×10⁵ cells) were washed with RPMI1640 (Roswell Park Memorial institute 1640 medium) and incubated on ice in the presence of ¹²⁵I labeled rat Reg protein (50 ng/ml, 1.5×10⁵ cpm/ml) with various concentrations of unlabeled rat Reg or human REG protein in RPMI1640 containing 1% fetal calf serum for 2 h. After washing with RPMI1640 three times, cells were solubilized by 1 ml of 100 mM Tris-HCl (pH 7.6), 1 mM EDTA and 1% Triton X-100. The radioactivity of the lysate was-determined by a γ-counter (Cobra, Packard). As a result, rat Reg binding protein expression vector-introduced-COS-7 cells bound to ¹²⁵I-labeled rat Reg protein and the binding was decreased by the addition of unlabeled Reg protein (FIG. 6).

[3] = target: B4; assay: displacement of 125I rat Reg protein (competitor tracer) from CHO cells stably expressing the rat Reg receptor
Experimental: as §1

rat Reg protein (Reg I) [4] = target: B2; assay: radioligand binding of 125I rat Reg protein to CHO cells stably expressing the rat Reg receptor
Experimental: as §1

[5] = target: B3; assay: competition binding on CHO cells stably expressing the rat Reg receptor (line RegR-#3): unlabelled human REG is varied against 125I rat Reg protein (50 ng/ml), gamma counting
Experimental: as §1

Binder: B1
binding result (rat Reg protein (Reg I) [1]): binds

Binder: B2
Ki [2]: 1.61 nM

Binder: B3
Ki [3]: 7.41 nM

Binder: B4
Kd (rat Reg protein (Reg I) [4]): 4.41 nM | binding result [5]: binds
